Source: US7410774B1, “Compounds modulating sister chromatid separation and method for identifying same” (Boehringer Ingelheim International GmbH, priority 1999, dated 2008)
Numbering of substitutions follows the chain as printed. Names may count otherwise.

T1: Scc1p tagged with multiple HA epitopes, chromatin-bound (chromatin of nocodazole-arrested yeast), Q12158
T1 chain: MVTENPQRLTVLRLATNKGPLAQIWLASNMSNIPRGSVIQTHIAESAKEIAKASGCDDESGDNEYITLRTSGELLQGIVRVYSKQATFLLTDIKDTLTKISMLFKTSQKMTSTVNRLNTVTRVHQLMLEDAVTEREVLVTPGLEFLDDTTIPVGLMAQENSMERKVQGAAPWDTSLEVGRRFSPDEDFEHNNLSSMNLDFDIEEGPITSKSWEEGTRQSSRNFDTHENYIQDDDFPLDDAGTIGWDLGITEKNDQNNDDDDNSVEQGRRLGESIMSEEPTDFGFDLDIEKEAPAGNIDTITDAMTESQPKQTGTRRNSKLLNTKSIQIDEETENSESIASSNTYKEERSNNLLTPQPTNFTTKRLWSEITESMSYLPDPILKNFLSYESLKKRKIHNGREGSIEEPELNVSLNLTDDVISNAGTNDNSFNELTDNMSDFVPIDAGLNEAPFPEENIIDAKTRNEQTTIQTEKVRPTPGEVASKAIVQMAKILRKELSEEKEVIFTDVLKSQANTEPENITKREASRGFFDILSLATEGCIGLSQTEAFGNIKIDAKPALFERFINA

B1: Pds1: yeast inhibitory protein binding Esp1; in vitro translated in reticulocyte lysate (protein)
chain: MMPANEDKENNIVYTGNESSGINFPQTPAHLLKRSHSNILKPPVRLDQLKRDANSNNGNTLKYIQGGKEVSPTKRLHTHAQQQGRLPLAAKDNNRSKSFIFPETSNQSKDADLPQLQNTLSIRKNDQLRKLSQISRSRSRANHNDLLSNSRKLQKYGSVLGYNALPKMKSLVLKDLADSGKNEESSDDDEGNEDSESKLGKKLQSALLKQDSSDGENELNGGLGLFNEQGGLQQLIKNSTKNEQKTKNDKSDKTDDYDIEIAPQRQEPLPYVPEGYSPFQQDDIEKLKTFNSPYKLDLEDEDDTPDKVDLLPLEQIDEEGEKDETECITRNQEEGAALPLLSKNFKEVAAVPTMELVYSEEGLDPEELEDLVT
B2: Esp1 mutant C1531A tagged with a FLAG epitope, overexpressed in yeast (protein)
chain: MMVKQEEPLNEISPNTPMTSKSYLLNDTLSKVHHSGQTRPLTSVLSGDASSNSIGILAMHNNIIRDFTKIASNNIDLAIEDITTVDHSLNSIYSLLKSHHMWGHINSTVKQHLMIIVKLINNNALGLASSEIIFLFNETNLFQAHSLKNILLADFSTWNDYYLSNLKILALQIILKRKLVDEYLPHILELFSHDKRYLLKDPNLKAHALTKIVLSFFSVTTSCKVLFGLKFLQYIKQFKLPFKKFISNITVECFSKNLLHKNYLEMGPNKIYLNSFYLSYSMLYDGLDKIMLLDILSYEETTEVQRAIKSKKEFNEYCNMSENRLLWSCISVDDLNVILENATNFLQNKGKHISATLKCLVCLWSTIRLEGLPKNKDILRQFDCTVIYINSNIKSINDESAAALLSELLGVLSEICIDYKEPKRLSNIISVLFNASVLFKSHSFLLKTANLEISNVLISNDSKTSHRTILKFEKFISSAQSAQKKIEIFSCLFNVYCMLRNDTLSFVFDFCQNAFIHCFTRLKITKFIEFSNSSEIMLSVLYGNSSIENIPSENWSQLSRMIFCSLRGIFDLDPLELNNTFDKLHLLNKYELLIRIVYLLNLDMSKHLTTNLSKITKLYINKWLQKSDEKAERISSFEMDFVKMLLCYLNFNNFDKLSIELSLCIKSKEKYYSSIVPYADNYLLEAYLSLYMIDDALMMKNQLQKTMNLSTAKIEQALLHASSLINVHLWDSDLTAFQIYFGKTLPAMKPELFDINNDHNLPMSLYIKVILLNIKIFNESAKLNIKAGNVISAVIDCRKAQNLALSLLKKKNKLSQGSRLALLKSLSFSFFQLIKIHIRIGSARDCEFYSKELSRIISDLEEPIIVYRCLHFLHRYYMITEQTCLQNITLGKANKAFDYLDAEADITSLTMFLYDNKEFVKLEQSLVLYFGDQLEKTFLPNLWKLHLGKDIDDSICLSEYMPKNVINRVHNMWQKVMSQLEEDPFFKGMFESTLGIPSSLPVIPSTMPNNILKTPSKHSTGLKLCDSPRSSSMTPRGKNIRQKFDRIAAISKLKQMKELLESLKLDTLDNHELSKISSLSSLTLTILSNITSIHNAESSLITNFSLTDLPRHMPLLFDKVLNNIDNKNYREFRVSSLIAPNNISTITESIRVSAAQKDLMESNLNINVITIDFCPITGNLLLSKLEPRRKRRTHLRLPLIRSNSRDLDEVHLSFPEATKKLLSIINESNQTTSVEVTNKIKTREERKSWWTTRYDLDKRMQQLLNNIENSWFNGVQGFFSPEVVDNSLFEKFKDKFYEILHQNLPSRKLYGNPAMFIKVEDWVIELFLKLNPQEIDFLSKMEDLIYFVLDILLFHGEENAYDEIDFSMLHVQLEEQIKKYRATMTTNSIFHTFLVVSSSCHLFPWECLSFLKDLSITRVPSYVCLNKLLSRFHYQLPLQVTIEDNISMILNPNGDLSRTESKFKGMFQKIIDAKPSSQLVMNEKPEEETLLKMLQNSNLFVYIGHGGGEQYVRSKEIKKCTKIAPSFLLGASSAAMKYYGKLEPTGTIYTYLLGGCPMVLGNLWDVTDKDIDKFSEELFEKMGFRCNTDDLNGNSLSVSYAVSKSRGVCHLRYLNGAAPVIYGLPIKFVS
B3: Wildtype Esp1 tagged with a FLAG epitope, overexpressed in yeast (protein)
chain: B2 chain with A1531C
B4: Esp1 mutant H1505A tagged with a FLAG epitope, overexpressed in yeast (protein)
chain: B2 chain with H1505A, A1531C

Assays:
Esp1 = target: T2, Esp1 (Saccharomyces cerevisiae, UniProt Q03018); experiment: In vitro assay for yeast Esp1p activity (Esp1-dependent Scc1p cleavage); format: biochemical; details: yeast chromatin incubated with extract over-producing Esp1; Western blot
T2 construct: made in house; host or cells: S. cerevisiae W303 derivative overexpressing Esp1p from the GAL1-10 promoter; soluble cell extract, not purified
Description: A crude Triton X-100 insoluble chromatin preparation was obtained from yeast cells as described (Liang and Stillman, 1997). The pelleted chromatin was resuspended in yeast cell extracts that had been prepared similar to the supernatant fraction of the chromatin preparation. One tenth volume of an ATP regenerating system was added (50 mM HEPES/KOH pH-7.5, 100 mM KCl, 10 mM MgCl2, 10 mM ATP, 600 mM creatin phosphate, 1.5 mg/ml phophocreatin kinase, 1 mM DTT, 10% glycerol). Reactions were incubated for 10 min at 25° C. with shaking and stopped on ice. The chromatin fraction was separated again from the supernatant by centrifugation, and resuspended in buffer EBX (Liang and Stillman, 1997). Equivalent aliquots of supernatant and chromatin pellet were analysed by SDS-PAGE and Western blotting. Scc1-HA was detected with the anti-HA monoclonal antibody 16B12 (Boehringer Mannheim). […]
Chromatin was prepared from a strain containing Scc1p tagged with HA epitopes that was arrested in metaphase with nocodazol. The proteins in the chromatin preparation were resolved by SDS-PAGE and Scc1-HA was detected by western blotting (FIG. 2, lane 1). […] Aliquots of the supernatant fraction and the chromatin fraction of each reaction were analysed.

[1] = target: T1, Scc1p tagged with multiple HA epitopes, …

T2 sequence (Q03018 whole entry): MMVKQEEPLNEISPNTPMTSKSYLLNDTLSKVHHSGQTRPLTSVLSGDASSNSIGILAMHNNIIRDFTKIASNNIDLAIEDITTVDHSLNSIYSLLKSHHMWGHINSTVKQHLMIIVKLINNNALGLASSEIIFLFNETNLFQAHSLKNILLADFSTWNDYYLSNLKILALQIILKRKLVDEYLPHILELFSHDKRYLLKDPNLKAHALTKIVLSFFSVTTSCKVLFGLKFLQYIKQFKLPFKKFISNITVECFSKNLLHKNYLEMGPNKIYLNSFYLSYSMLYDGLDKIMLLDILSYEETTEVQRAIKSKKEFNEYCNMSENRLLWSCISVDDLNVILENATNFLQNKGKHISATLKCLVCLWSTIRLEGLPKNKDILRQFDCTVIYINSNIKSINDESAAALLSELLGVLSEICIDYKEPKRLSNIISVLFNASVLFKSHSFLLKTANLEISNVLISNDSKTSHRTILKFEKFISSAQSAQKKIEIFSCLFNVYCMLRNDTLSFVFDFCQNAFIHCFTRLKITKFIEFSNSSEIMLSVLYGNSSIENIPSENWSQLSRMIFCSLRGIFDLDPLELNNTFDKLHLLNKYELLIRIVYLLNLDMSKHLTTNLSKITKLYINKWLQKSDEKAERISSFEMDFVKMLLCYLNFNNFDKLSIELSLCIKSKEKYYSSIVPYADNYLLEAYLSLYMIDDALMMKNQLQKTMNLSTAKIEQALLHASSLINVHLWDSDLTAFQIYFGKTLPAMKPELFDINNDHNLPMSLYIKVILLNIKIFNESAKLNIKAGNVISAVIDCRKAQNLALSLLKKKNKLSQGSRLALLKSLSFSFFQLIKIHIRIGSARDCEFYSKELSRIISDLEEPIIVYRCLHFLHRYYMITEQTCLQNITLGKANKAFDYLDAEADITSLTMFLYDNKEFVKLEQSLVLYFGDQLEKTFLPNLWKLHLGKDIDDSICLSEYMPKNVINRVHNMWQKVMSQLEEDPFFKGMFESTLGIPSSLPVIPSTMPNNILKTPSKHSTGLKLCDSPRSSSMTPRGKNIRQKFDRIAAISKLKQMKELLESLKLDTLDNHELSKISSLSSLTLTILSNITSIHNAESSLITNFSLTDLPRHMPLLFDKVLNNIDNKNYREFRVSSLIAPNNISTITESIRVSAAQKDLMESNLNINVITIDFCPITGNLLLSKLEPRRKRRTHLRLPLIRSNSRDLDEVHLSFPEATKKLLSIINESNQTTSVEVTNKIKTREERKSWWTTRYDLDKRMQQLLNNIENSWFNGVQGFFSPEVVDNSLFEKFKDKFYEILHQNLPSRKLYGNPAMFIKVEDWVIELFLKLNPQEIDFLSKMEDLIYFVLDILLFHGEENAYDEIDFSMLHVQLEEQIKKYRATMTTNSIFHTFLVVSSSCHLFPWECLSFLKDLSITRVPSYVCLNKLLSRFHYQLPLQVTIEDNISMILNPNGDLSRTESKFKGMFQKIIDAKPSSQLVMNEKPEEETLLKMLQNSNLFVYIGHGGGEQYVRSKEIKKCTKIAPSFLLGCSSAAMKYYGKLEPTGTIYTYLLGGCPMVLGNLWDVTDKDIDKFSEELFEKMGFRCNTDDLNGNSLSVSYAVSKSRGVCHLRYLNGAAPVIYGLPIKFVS

| Molecule | Esp1-dependent in vitro cleavage of Scc1p (Esp1) | Scc1 cleavage activity in yeast extracts [1] |
| --- | --- | --- |
| CCN1C(=O)C=CC1=O [N-ethyl maleimide] | inhibited |  |
| B1 | inhibited |  |
| B2 |  | Both mutations completely abolished the proteolytic activity in yeast extracts after overproduction of the proteins |
| B3 |  | Wild type Esp1 overexpressed to a similar level caused complete cleavage of the Scc1 substrate |
| B4 |  | Both mutations completely abolished the proteolytic activity in yeast extracts after overproduction of the proteins |
